Molecular target: T1, SpoT catalytic domains (SpoT^1-378) (E. coli, UniProt P0AG24 1-378)
T1 construct: SpoT, E. coli, residues 1-378 (catalytic domains: hydrolase and synthetase); no cleavage is described; also called SpoT^1–378-6His; recombinant SpoT^1–378
Assay: BLI; biotinylated YtfK (2.5 µM) on streptavidin biosensors; SpoT1-378 (5-80 µM) or RelA1-396 (40-120 µM) as analyte; BLItz, 25 °C; 50 mM Tris-HCl pH 8.0, 500 mM NaCl, 500 mM KCl, 2 mM β-mercaptoethanol, glycerol 2%, BSA 1 mg/ml; KD estimated from responses 10 s before the end of association, one-site fit
Details: both partners purified

T1 sequence (P0AG24 1-378): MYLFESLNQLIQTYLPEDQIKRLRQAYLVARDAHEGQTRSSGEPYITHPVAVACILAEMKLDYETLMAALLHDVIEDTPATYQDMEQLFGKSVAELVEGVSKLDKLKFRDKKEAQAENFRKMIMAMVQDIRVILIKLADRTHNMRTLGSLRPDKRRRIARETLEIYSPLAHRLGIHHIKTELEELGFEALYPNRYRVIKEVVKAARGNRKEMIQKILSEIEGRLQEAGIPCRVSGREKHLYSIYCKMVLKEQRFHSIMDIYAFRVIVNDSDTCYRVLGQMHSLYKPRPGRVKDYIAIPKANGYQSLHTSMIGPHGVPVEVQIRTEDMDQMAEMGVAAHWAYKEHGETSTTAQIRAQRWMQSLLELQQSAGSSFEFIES

- Kd: 35 µM
B1: YtfK, purified, biotinylated (natural protein)
chain: not shown
modifications: biotin (EZ-Link NHS-PEG4-Biotin, 1:1 ratio of YtfK and biotin)
notes: YtfK, E. coli; ytfK gene amplified from E. coli chromosomal DNA and cloned in pET28a+-TRX (thioredoxin-6his-tev); the TRX-6His-TEV cassette (NcoI/BamHI) lies upstream of ytfK (BamHI/HindIII), so residues from the TEV site and cloning site may remain at the N-terminus; also called Untagged YtfK; biotinylated YtfK
